Results published in paper PMC9186069.

Legend:
[1] = molecular target: FbpA-C (Borrelia miyamotoi strain FR64b) (UniProt W5SFZ1); test: SPR; FbpA-C, FbpB-C or FbpA DA-C immobilised by amine coupling; C1r-CCP2-SP injected, twofold dilution series 0-100 nM, multi-cycle; Biacore T200, 25°C, 30 μL/min; kinetic fits
[2] = molecular target: serum C1r (human (endogenous in normal human serum))
[3] = molecular target: MBP-FbpA-N (Borrelia miyamotoi strain FR64b); test: SPR; MBP-Fbp-N fusion proteins immobilised by amine coupling on CMD200 chips; human plasma fibronectin injected, twofold dilution series up to 500 nM, multi-cycle; Biacore T200, 25°C, 30 μL/min, HBS-T; steady-state affinity fits

## C1r-CCP2-SP (domain or fragment)
[1]
  Kd: 0.9 nM
  koff: 0.00031 s⁻¹
  kon: 330000 M⁻¹ s⁻¹

## FbpA-C (from UniProt W5SFZ1 222-371) (domain or fragment)
[2]
  IC50 of inhibition of classical pathway complement activation (ELISA-based assay, C4b deposition, normal human serum): 23 nM
  IC50 of inhibition of classical pathway hemolysis (pre-sensitized sheep erythrocytes, 2% normal human serum): 220 nM

## FbpB-C (from UniProt A0A0U2RP97 264-432) (domain or fragment)
[2]
  IC50 of inhibition of classical pathway complement activation (ELISA-based assay, C4b deposition, normal human serum): 1900 nM

## human fibronectin (from UniProt P02751) (natural protein)
[3]
  Kd: 170 nM
